Patent US8431396B2, “Anti-angiogenic peptides” (The Cleveland Clinic Foundation, priority 2003, dated 2013)

How the values were obtained:
KDR [1] = target: T1, KDR (Homo sapiens, UniProt P35968); experiment: [125I]VEGF binding to the surface of PAE-KDR cells; settings: pretreatment with recombinant protein
T1 construct: To determine whether these receptor isoforms represent full-length VEGFR-2; expressed in transfected cells; host or cells: porcine aortic endothelial (PAE) cells
Method: Radioligand binding is expressed as percent binding and is the mean±s.e.m. of triplicate samples. […] All values are expressed as mean±s.e.m. of triplicate samples. […] Binding is expressed as mean±s.e.m.
Data were analyzed by Scatchard plot analyses.

PDGFR-β = target: T2, PDGFR-β (Homo sapiens, UniProt P09619); experiment: PDGF-BB-induced PDGFR-β phosphorylation (immunoprecipitation/immunoblot); assay type: cell-based; settings: 1 μg/ml; PAE-PDGFR-β cells
T2 construct: expressed in transfected cells; host or cells: porcine aortic endothelial (PAE) cells
Method: (§1) PDGF-BB-mediated phosphorylation was examined similarly in PAESPDGFR-β cells (anti-PDGFR-β; top right panel). […] PDGF-BB-mediated phosphorylation of PDGFR-β in PAE-PDGFR-β cells overexpressing TIMP3 (top right). KDR protein or PDGFR-β protein was analyzed by both immunoprecipitation and immunoblotting with antibodies specific for KDR (left) or for PDGFR-β (right; A and B, second panels from top). […] Total protein levels of ERK were determined by immunoblotting with antibodies specific for ERK1/2 (anti-ERK1/2; A and B, bottom).
(§2) Cell fractions, prepared as described earlier, or immunoprecipitates of the lysates with the indicated antibodies, were subjected to SDS-PAGE. Proteins were detected with horseradish peroxidase-conjugated antibodies specific for either rabbit or mouse IgG (Amersham Pharmacia, Piscataway, N.J.) followed by enhanced chemiluminescence.

PAE-KDR cells = experiment: Endothelial cell migration toward VEGF (modified Boyden chamber); assay type: cell-based, porcine
Method: (B) Comparison of the effects of rTIMP3, rTIMP1 and BB3103 on VEGF165-induced migration of PAE-KDR cells. […] In all migration experiments, migrating cell number is expressed as mean±s.e.m. of quadruplicate samples. All experiments were done in triplicate. Open symbols, KDR-vector; closed symbols, KDR-TIMP3.*, P<0.01; **, P<0.05.
A modified Boyden chamber assay for migration and proliferation assays were carried out as described.

MMPs = experiment: Reverse zymography of ECM and CM of transfected PAEKDR cells; assay type: biochemical; settings: PAEKDR cells expressing WT or mutant TIMP3
Method: Conditioned medium, cell lysates and ECM fractions from transfected cells were prepared as described previously (Qi et al., 2002). Equal amounts of protein were loaded onto a 12% gel with 1 mg/ml gelatin plus RPE cell-conditioned media, as a source of MMPs, for reverse zymography and processed as described previously (Pavloff et al., 1992).

[2] = test system: MDA-MB435 human breast carcinoma cells; experiment: Tumors from mice injected with MDA-MB435 cells transfected with TIMP3, von Willebrand factor staining; assay type: in vivo; settings: von Willebrand factor immunostaining; TIMP3-transfected tumor cells
Description: Brown reaction product depicts endothelial cells lining the vessels.

ERK1 and ERK2 = ERK1 and ERK2 phosphorylation (immunoblot); assay type: cell-based; settings: recombinant TIMP3
Method: as §1, §2

KDR-IgG = target: T3, KDR-IgG (Homo sapiens, UniProt P35968); experiment: Cross-linking of [125I]TIMP3 to soluble KDR; assay type: binding; settings: bis(sulfosuccinimidyl)suberate
T3 construct: purchased R&D Systems
Method: (§3) Immunoprecipitation of cell lysates with antibodies specific for TIMP3 was followed by immunoblotting with antibodies specific for KDR (top). As a control for KDR receptor, cell lysates were immunoprecipitated with anti-bodies specific for KDR and probed with antibodies specific for KDR Immunoprecipitation with antibodies specific for KDR and immunoblotting with antibodies specific for TIMP3 (bottom) were carried out on PAE-KDR cells exposed to recombinant TIMP3 or PAE-KDR-vector and PAE-KDR cells overexpressing TIMP3, to confirm the interaction. […] Competition with unlabeled TIMP3 was carried out to ensure specificity. […] (E) In vivo interaction of KDR and TIMP3 in human placenta. Immunoprecipitation using antibodies specific TIMP3 (top) and KDR (bottom) was followed by immunoblotting with antibodies specific for KDR (top) and TIMP3 (bottom).
Ligand-receptor complexes on the cell surface were crosslinked with 0.5 mM disuccinimidyl suberate (Pierce) and analyzed by immunoprecipitation and SDS-PAGE followed by autoradiography. For in vitro assays, radioligand was crosslinked with 250 ng soluble KDR.

KDR [3] = target: T1, KDR; experiment: VEGF-stimulated KDR tyrosine phosphorylation in membrane fractions (Western blot); assay type: cell-based; settings: WT-TIMP3 cells; data not shown
Method: 2 day serum free conditioned medium (CM) was collected from subconfluent cells cultured on six-well plates (Costar). In some cases the CM was further concentrated with heparin-agarose gels (Bio-rad). The cell monolayer was dislodged from the culture plates following a 10 min incubation in Ca2+, Mg2+ free phosphate buffered saline (PBS) containing 2.5 mM EDTA. After several rinses in PBS and water, the ECM was scraped in a small volume of electrophoresis sample buffer without reducing agent for analyses. Plasma membrane (PM) fractions were prepared from cells centrifuged at 500 g and 4° C. for 5 min The supernatant was discarded and the cell pellets were resuspended in PBS containing protease inhibitors, lysed with a 26-gauge syringe needle, and centrifuged at 3,000 g at 4° C. for 15 minutes. The supernatant was centrifuged at […] at 4° C. for 1 hr. The PM pellets were suspended in lysis buffer containing protease inhibitors. In some instances the membrane fraction of cells was prepared using ProteoExtract Subcellular Proteome Extaction Kit (EMD Biosciences, Inc).
Cell fractions or immunoprecipitates of the lysates with the indicated antibodies were subjected to SDS-PAGE. Proteins were detected with either a HRP-conjugated anti-rabbit or anti mouse IgG antibody (Amersham Pharmacia Biotech., Piscataway, N.J.) followed by ECL. […]

VEGFR-2 (KDR) = target: T4, VEGFR-2 (KDR) (Homo sapiens, UniProt P35968); experiment: [125I]VEGF binding in transfected PAEKDR cell lines; settings: PAEKDR cells expressing WT-TIMP3
T4 construct: To determine whether these receptor isoforms represent full-length VEGFR-2; expressed in transfected cells; host or cells: porcine aortic endothelial (PAE) cells
Method: PAEKDR cells were transfected with TIMP3 cDNA or empty vector using Lipofectamine reagent (Gibco-BRL Rockville, Md.). Stable clones were isolated using Hygromycin selection.
After washing, the cell monolayers were solubilized with lysis buffer (20 mM Tris HCl pH 7.5, 1% triton X 100 and 10% glycerol), and the radioactivity measured in a gamma counter.

endothelial cells = experiment: Competitive displacement of [125I]TIMP3 from the surface of endothelial cells; assay type: binding; settings: unlabeled VEGF 2 μg/ml, TIMP3 10 μg/ml
Method: as §3

soluble FLT1-IgG = target: T5, soluble FLT1-IgG (Homo sapiens, UniProt P17948); experiment: Solid-phase binding of [125I]VEGF165 to soluble FLT1-IgG; settings: similar doses as for KDR-IgG
T5 construct: purchased R&D Systems
Method: (B) Expression of KDR in the lysate and plasma membrane (PM) of PAE-KDR and PAE-KDR-TIMP3 was analyzed by immunoprecipitation (Ip) and western blot (Ib) analysis with antibody specific for KDR. […] Values are the mean±s.e.m. of triplicate wells.
Soluble KDR-Fc or FLT1-Fc (50 ng) was added to each well. […] After washing, the bound protein was solubilized with 1% SDS and 1 M NaOH and radioactivity measured in a γ-counter.

T1 sequence (P35968 20-1356): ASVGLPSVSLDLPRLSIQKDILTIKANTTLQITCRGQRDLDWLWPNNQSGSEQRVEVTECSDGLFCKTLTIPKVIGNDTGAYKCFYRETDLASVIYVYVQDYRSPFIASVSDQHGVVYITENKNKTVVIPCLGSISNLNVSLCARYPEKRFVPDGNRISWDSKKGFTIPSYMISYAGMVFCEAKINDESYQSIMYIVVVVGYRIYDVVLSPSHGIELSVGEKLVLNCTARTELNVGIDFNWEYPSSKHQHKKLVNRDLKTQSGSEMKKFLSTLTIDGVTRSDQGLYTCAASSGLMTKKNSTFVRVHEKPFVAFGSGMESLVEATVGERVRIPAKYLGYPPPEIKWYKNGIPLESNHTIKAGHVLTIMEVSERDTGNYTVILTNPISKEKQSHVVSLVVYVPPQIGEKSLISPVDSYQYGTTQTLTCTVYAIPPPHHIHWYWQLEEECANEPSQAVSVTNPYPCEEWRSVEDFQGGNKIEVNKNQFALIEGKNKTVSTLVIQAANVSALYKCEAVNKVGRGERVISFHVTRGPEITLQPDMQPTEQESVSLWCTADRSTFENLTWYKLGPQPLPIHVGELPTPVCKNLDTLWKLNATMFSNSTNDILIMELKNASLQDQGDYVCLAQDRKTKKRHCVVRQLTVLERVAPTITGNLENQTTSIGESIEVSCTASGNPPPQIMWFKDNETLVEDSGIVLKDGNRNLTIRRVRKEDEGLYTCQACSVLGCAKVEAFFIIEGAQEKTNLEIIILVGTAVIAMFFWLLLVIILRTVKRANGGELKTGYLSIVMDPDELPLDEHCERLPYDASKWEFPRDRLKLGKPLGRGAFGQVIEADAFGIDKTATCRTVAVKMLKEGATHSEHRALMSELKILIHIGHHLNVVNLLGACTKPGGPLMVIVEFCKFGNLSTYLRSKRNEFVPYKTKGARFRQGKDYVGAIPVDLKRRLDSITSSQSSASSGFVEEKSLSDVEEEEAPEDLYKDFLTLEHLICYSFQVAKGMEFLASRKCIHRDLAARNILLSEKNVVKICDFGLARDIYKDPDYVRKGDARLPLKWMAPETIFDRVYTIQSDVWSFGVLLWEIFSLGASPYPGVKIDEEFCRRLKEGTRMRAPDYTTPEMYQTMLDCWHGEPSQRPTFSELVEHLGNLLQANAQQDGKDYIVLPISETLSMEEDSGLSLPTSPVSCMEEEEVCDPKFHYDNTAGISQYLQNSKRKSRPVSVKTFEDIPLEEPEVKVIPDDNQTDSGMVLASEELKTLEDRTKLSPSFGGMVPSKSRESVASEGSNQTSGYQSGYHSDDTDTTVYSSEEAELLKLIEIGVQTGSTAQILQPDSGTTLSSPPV
T3 sequence (P35968 20-764 limits assumed): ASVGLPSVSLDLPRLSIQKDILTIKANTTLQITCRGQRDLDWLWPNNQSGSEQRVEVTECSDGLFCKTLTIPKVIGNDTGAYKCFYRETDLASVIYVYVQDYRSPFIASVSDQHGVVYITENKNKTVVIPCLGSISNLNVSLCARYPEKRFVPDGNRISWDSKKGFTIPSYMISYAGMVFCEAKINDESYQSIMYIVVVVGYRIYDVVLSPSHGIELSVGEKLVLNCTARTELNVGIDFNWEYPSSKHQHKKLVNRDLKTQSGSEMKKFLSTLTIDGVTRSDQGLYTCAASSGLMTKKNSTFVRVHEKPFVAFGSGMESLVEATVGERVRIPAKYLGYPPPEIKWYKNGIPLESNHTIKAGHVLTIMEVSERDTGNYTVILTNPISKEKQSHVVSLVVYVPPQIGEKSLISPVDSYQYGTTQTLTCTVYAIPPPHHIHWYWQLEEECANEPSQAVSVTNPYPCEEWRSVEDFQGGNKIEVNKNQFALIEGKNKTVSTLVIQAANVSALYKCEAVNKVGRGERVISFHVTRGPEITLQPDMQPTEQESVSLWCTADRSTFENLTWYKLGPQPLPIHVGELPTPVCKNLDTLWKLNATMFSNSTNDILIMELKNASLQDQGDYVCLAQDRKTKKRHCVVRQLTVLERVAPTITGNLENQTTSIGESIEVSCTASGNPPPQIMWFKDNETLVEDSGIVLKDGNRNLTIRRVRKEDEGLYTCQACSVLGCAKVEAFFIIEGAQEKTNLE
T2 sequence (P09619 33-1106, species assumed): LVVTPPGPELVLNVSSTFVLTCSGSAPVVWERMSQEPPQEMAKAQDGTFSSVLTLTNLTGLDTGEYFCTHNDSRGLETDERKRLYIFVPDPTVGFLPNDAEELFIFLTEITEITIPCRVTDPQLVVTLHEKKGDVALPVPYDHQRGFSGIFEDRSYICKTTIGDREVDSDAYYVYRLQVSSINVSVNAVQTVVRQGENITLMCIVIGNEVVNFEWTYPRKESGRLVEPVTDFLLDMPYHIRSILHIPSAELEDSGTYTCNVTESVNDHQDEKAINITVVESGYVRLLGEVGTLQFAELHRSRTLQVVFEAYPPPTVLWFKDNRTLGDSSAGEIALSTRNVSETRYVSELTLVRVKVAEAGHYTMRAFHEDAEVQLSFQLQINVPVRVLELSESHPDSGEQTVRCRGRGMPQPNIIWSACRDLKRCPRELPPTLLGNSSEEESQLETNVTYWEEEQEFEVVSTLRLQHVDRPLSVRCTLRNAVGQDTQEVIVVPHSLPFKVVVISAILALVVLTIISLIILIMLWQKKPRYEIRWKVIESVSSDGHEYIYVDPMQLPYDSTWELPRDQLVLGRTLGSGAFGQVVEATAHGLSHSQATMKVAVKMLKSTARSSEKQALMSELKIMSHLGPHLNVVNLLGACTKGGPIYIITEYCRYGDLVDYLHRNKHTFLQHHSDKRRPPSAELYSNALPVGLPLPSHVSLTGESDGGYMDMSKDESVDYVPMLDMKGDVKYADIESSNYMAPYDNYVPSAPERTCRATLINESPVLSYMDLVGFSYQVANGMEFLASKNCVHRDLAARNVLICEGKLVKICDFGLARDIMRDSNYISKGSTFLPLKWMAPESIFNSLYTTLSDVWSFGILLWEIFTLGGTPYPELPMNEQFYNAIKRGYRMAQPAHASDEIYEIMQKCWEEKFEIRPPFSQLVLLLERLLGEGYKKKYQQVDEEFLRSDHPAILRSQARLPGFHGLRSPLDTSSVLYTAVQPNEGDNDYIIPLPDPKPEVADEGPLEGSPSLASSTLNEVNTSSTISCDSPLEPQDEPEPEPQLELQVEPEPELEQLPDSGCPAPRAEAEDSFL
T4 sequence (P35968 20-1356): as the sequence (P35968 20-1356) above
T5 sequence (P17948 27-758 limits assumed): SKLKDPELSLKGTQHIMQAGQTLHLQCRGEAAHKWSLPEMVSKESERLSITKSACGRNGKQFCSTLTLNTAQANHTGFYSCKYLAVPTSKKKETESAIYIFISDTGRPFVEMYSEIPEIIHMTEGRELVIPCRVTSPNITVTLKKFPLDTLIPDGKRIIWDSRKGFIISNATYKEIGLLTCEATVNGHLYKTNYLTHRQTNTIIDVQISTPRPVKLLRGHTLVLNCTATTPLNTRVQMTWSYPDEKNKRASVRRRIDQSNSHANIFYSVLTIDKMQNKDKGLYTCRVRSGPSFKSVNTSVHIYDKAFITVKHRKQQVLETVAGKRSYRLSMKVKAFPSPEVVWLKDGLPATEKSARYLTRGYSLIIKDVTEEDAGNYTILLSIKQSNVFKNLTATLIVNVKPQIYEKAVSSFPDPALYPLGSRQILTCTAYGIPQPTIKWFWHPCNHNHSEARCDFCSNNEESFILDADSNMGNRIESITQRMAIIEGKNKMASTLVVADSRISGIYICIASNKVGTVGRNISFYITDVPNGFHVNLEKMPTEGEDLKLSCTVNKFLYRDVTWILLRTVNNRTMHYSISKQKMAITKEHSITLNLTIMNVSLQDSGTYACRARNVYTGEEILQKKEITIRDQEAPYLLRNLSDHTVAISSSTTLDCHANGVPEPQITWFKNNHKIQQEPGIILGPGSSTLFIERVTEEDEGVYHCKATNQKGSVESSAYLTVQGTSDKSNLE

B1: TIMP3: tissue inhibitor of metalloproteinases-3; recombinant human form expressed in NSO myeloma cells, or wild-type expressed in transfected cells (protein, listed as Homo sapiens)
chain: MTPWLGLIVLLGSWSLGDWGAEACTCSPSHPQDAFCNSDIVIRAKVVGKKLVKEGPFGTLVYTIKQMKMYRGFTKMPHVQYIHTEASESLCGLKLEVNKYQYLLTGRVYDGKMYTGLCNFVERWDQLTLSQRKGLNYRYHLGCNCKIKSCYYLPCFVTSKNECLWTDMLSNFGYPGYQSKHYACIRQKGGYCSWYRGWAPPDKSIINATDP
**Q.** B1 was tested. Which “IC50 for inhibition of [125I]VEGF binding to PAE-KDR cells” value (KDR [1]) did it give?
**A.** 3.3 to 4.5 µg/mL

**Q.** What about the “effect on phosphorylation of PDGFR-β stimulated with PDGF-BB” value (PDGFR-β) of the same molecule?
**A.** did not affect

**Q.** And the “inhibition of endothelial cell migration toward VEGF” value (PAE-KDR cells; added exogenously, VEGF165 10 ng/ml)?
**A.** inhibited their migration toward VEGF in a dose-dependent manner

**Q.** And the “dose giving complete inhibition of migration toward VEGF” value (PAE-KDR cells; recombinant protein added exogenously)?
**A.** 3 µg/mL

**Q.** What about the “chemotactic response to VEGF121 and VEGF165” value (PAE-KDR cells; stable expression of TIMP3 in the endothelial cells) of the same molecule?
**A.** attenuation of the chemotactic response

**Q.** And the “MMP inhibitory activity in ECM and CM (reverse zymography)” value (MMPs)?
**A.** marked MMP inhibitory species

**Q.** And the “neovascularization of tumors expressing TIMP3 vs control tumors” value [2]?
**A.** decrease in neovascularization

**Q.** And the “downstream phosphorylation of ERK1 and ERK2 in response to VEGF” value (ERK1 and ERK2)?
**A.** inhibited in response to VEGF

**Q.** And the “direct binding of [125I]TIMP3 to KDR-IgG by cross-linking” value (KDR-IgG)?
**A.** could be covalently cross-linked to KDR-IgG

**Q.** And the “receptor autophosphorylation after VEGF stimulation” value (KDR [3])?
**A.** no receptor autophosphorylation was seen

**Q.** What about the “effect on binding of [125I] VEGF to KDR” value (VEGFR-2 (KDR)) of the same molecule?
**A.** dramatically inhibited the binding

**Q.** What about the “inhibition of binding of labeled TIMP3 to the surface of endothelial cells” value (endothelial cells) of the same molecule?
**A.** could inhibit the binding of labeled TIMP3

**Q.** And the “inhibition of [125I]VEGF binding to soluble FLT1-IgG” value (soluble FLT1-IgG)?
**A.** could not inhibit
